T1: cyno IL-6 (cynomolgus monkey, UniProt P79341 28-212, limits assumed)
T1 sequence (looked up): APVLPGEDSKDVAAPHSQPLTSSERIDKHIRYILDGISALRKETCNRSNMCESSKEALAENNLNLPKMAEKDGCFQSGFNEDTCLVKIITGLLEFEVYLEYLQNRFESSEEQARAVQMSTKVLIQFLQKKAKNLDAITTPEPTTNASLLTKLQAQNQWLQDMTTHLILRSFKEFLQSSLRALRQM

B1: F027200812 (bispecific antibody)
chain: DVQLVESGGGVVQPGGSLRLSCAASGRTFSNYAMAWFRQAPGKEREFVAVISYAGGRTYYADSVKGRFTISRDNAKNTVYLQMNSLRPEDTALYYCAAVDSPLIATHPRGYDYWGQGTLVTVSSGGGGSGGGSEVQLVESGGGVVQPGGSLRLSCAASGFTFRSFGMSWVRQAPGKGPEWVSSISGSGSDTLYADSVKGRFTISRDNSKNTLYLQMNSLRPEDTALYYCTIGGSLSRSSQGTLVTVSSGGGGSGGGSEVQLVESGGGVVQPGGSLRLSCAASGFSLDYYGVGWFRQAPGKEREGVSCISSSEGDTYYADSVKGRFTISRDNAKNTVYLQMNSLRPEDTALYYCATDLSDYGVCSRWPSPYDYWGQGTLVKVSSGGGGSGGGSEVQLVESGGGVVQPGGSLRLSCTASGFTFSTADMGWFRQAPGKGREFVARISGIDGTTYYDEPVKGRFTISRDNSKNTVYLQMNSLRPEDTALYYCRSPRYADQWSAYDYWGQGTLVKVSS
B2: F027201029 (bispecific antibody)
chain: EVQLVESGGGVVQPGGSLRLSCTASGFTFSTADMGWFRQAPGKGREFVARISGIDGTTYYDEPVKGRFTISRDNSKNTVYLQMNSLRPEDTALYYCRSPRYADQWSAYDYWGQGTLVKVSSGGGGSGGGSDVQLVESGGGVVQPGGSLRLSCAASGRTFSNYAMAWFRQAPGKEREFVAVISYAGGRTYYADSVKGRFTISRDNAKNTVYLQMNSLRPEDTALYYCAAVDSPLIATHPRGYDYWGQGTLVTVSSGGGGSGGGSEVQLVESGGGVVQPGGSLRLSCAASGFTFRSFGMSWVRQAPGKGPEWVSSISGSGSDTLYADSVKGRFTISRDNSKNTLYLQMNSLRPEDTALYYCTIGGSLSRSSQGTLVTVSSGGGGSGGGSEVQLVESGGGVVQPGGSLRLSCAASGIIFSINAMGWYRQAPGKQRELVADIFPFGSTEYADSVKGRFTISRDNAKNTVYLQMNSLRPEDTALYYCHSYDPRGDDYWGQGTLVTVSS
B3: F027200809 (bispecific antibody)
chain: EVQLVESGGGVVQPGGSLRLSCTASGFTFSTADMGWFRQAPGKGREFVARISGIDGTTYYDEPVKGRFTISRDNSKNTVYLQMNSLRPEDTALYYCRSPRYADQWSAYDYWGQGTLVKVSSGGGGSGGGSDVQLVESGGGVVQPGGSLRLSCAASGRTFSNYAMAWFRQAPGKEREFVAVISYAGGRTYYADSVKGRFTISRDNAKNTVYLQMNSLRPEDTALYYCAAVDSPLIATHPRGYDYWGQGTLVTVSSGGGGSGGGSEVQLVESGGGVVQPGGSLRLSCAASGFTFRSFGMSWVRQAPGKGPEWVSSISGSGSDTLYADSVKGRFTISRDNSKNTLYLQMNSLRPEDTALYYCTIGGSLSRSSQGTLVTVSSGGGGSGGGSEVQLVESGGGVVQPGGSLRLSCAASGFSLDYYGVGWFRQAPGKEREGVSCISSSEGDTYYADSVKGRFTISRDNAKNTVYLQMNSLRPEDTALYYCATDLSDYGVCSRWPSPYDYWGQGTLVKVSS
B4: F027200166 (bispecific antibody)
chain: EVQLVESGGGVVQPGGSLRLSCAASGIIFSINAMGWYRQAPGKQRELVADIFPFGSTEYADSVKGRFTISRDNAKNTVYLQMNSLRPEDTALYYCHSYDPRGDDYWGQGTLVTVSSGGGGSGGGSEVQLVESGGGVVQPGGSLRLSCAASGFTLAYYAIGWFRQAPGKEREGVSCISGSVGTTYYADSVKGRFTISRDNAKNTVYLQMNSLRPEDTALYYCVRSSWFDCGVQGRDLGNEYDYRGQGTLVTVSSGGGGSGGGSEVQLVESGGGVVQPGGSLRLSCAASGFTFRSFGMSWVRQAPGKGPEWVSSISGSGSDTLYADSVKGRFTISRDNSKNTLYLQMNSLRPEDTALYYCTIGGSLSRSSQGTLVTVSSGGGGSGGGSEVQLVESGGGVVQPGGSLRLSCTASGFTFSTADMGWFRQAPGKGREFVARISGIDGTTYYDEPVKGRFTISRDNSKNTVYLQMNSLRPEDTALYYCRSPRYADQWSAYDYWGQGTLVKVSS
B5: F027200157 (bispecific antibody)
chain: EVQLVESGGGVVQPGGSLRLSCTASGFTFSTADMGWFRQAPGKGREFVARISGIDGTTYYDEPVKGRFTISRDNSKNTVYLQMNSLRPEDTALYYCRSPRYADQWSAYDYWGQGTLVKVSSGGGGSGGGSEVQLVESGGGVVQPGGSLRLSCAASGFTFRSFGMSWVRQAPGKGPEWVSSISGSGSDTLYADSVKGRFTISRDNSKNTLYLQMNSLRPEDTALYYCTIGGSLSRSSQGTLVTVSSGGGGSGGGSEVQLVESGGGVVQPGGSLRLSCAASGIIFSINAMGWYRQAPGKQRELVADIFPFGSTEYADSVKGRFTISRDNAKNTVYLQMNSLRPEDTALYYCHSYDPRGDDYWGQGTLVTVSSGGGGSGGGSEVQLVESGGGVVQPGGSLRLSCAASGFTLAYYAIGWFRQAPGKEREGVSCISGSVGTTYYADSVKGRFTISRDNAKNTVYLQMNSLRPEDTALYYCVRSSWFDCGVQGRDLGNEYDYRGQGTLVTVSS
B6: F027200929 (bispecific antibody)
chain: EVQLVESGGGVVQPGGSLRLSCAASGRTFSSYVMGWFRQAPGKEREFVSTINWAGSRGYYADSVKGRFTISRDNAKNTVYLQMNSLRPEDTALYYCAASAGGFLVPRVGQGYDYWGQGTLVTVSSGGGGSGGGSEVQLVESGGGVVQPGGSLRLSCAASGFTFRSFGMSWVRQAPGKGPEWVSSISGSGSDTLYADSVKGRFTISRDNSKNTLYLQMNSLRPEDTALYYCTIGGSLSRSSQGTLVTVSSGGGGSGGGSEVQLVESGGGVVQPGGSLRLSCAASGFSLDYYGVGWFRQAPGKEREGVSCISSSEGDTYYADSVKGRFTISRDNAKNTVYLQMNSLRPEDTALYYCATDLSDYGVCSRWPSPYDYWGQGTLVKVSSGGGGSGGGSEVQLVESGGGVVQPGGSLRLSCTASGFTFSTADMGWFRQAPGKGREFVARISGIDGTTYYDEPVKGRFTISRDNSKNTVYLQMNSLRPEDTALYYCRSPRYADQWSAYDYWGQGTLVKVSS
B7: F027200215 (bispecific antibody)
chain: EVQLVESGGGVVQPGGSLRLSCAASGIIFSINAMGWYRQAPGKQRELVADIFPFGSTEYADSVKGRFTISRDNAKNTVYLQMNSLRPEDTALYYCHSYDPRGDDYWGQGTLVTVSSGGGGSGGGSDVQLVESGGGVVQPGGSLRLSCAASGRTFSNYAMAWFRQAPGKEREFVAVISYAGGRTYYADSVKGRFTISRDNAKNTVYLQMNSLRPEDTALYYCAAVDSPLIATHPRGYDYWGQGTLVTVSSGGGGSGGGSEVQLVESGGGVVQPGGSLRLSCAASGFTFRSFGMSWVRQAPGKGPEWVSSISGSGSDTLYADSVKGRFTISRDNSKNTLYLQMNSLRPEDTALYYCTIGGSLSRSSQGTLVTVSSGGGGSGGGSEVQLVESGGGVVQPGGSLRLSCTASGFTFSTADMGWFRQAPGKGREFVARISGIDGTTYYDEPVKGRFTISRDNSKNTVYLQMNSLRPEDTALYYCRSPRYADQWSAYDYWGQGTLVKVSS

biological target: T2, human IL-6 (human, UniProt P05231 30-212); assay: cell-based or functional assay

Row | Binder | IC50 hIL-6 TF1 proliferation assay [nM]
1 | B1 | 0.072
2 | B2 | 0.347
3 | B3 | 0.0682
4 | B4 | 2.25
5 | B5 | 3.33
6 | B6 | 0.0738
7 | B7 | 0.302

biological target: T1, cyno IL-6; assay: cell-based or functional assay

Row | Binder | Ratio IC50 cyno IL-6/hIL-6 [ratio]
8 | B1 | 0.7
9 | B2 | 0.6
10 | B3 | 0.9
11 | B4 | 10
12 | B5 | 7.1
13 | B6 | 1
14 | B7 | 2

biological target: T3, human TNF-α (human, UniProt P01375 77-233); assay: cell-based or functional assay
T3 sequence (P01375 77-233 limits assumed): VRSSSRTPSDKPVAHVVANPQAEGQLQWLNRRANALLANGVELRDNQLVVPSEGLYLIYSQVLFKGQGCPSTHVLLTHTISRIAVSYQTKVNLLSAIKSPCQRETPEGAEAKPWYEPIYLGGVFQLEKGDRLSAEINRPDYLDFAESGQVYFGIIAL

Row | Binder | IC50 hTNF-α Nfkb assay [nM]
15 | B1 | 0.206
16 | B2 | 0.0685
17 | B3 | 0.141
18 | B4 | 0.16
19 | B5 | 0.124
20 | B6 | 0.0858
21 | B7 | 0.239

biological target: T4, cyno TNF-α (cynomolgus monkey, UniProt P79337 77-233); assay: cell-based or functional assay
T4 sequence (P79337 77-233 limits assumed): as the sequence (P01375 77-233 limits assumed) above, with L37V, R44T, T72N, R138L counted along it

Row | Binder | Ratio IC50 cyno TNFα/hTNFα [ratio]
22 | B1 | 1.7
23 | B2 | 2
24 | B3 | 2.3
25 | B4 | 3.3
26 | B5 | 4
27 | B6 | 3.2
28 | B7 | 2.7

biological target: T2, human IL-6; assay: cell-based or functional assay; remark: another data set of the same source

Row | Binder | Ratio IC50 reference anti-IL-6 mAb1/Nb [ratio] | hIL-6 TF1 proliferation assay (IC50, pM) [pM]
29 | B1 | 1.7 | 72
30 | B2 | 5.3 | 347
31 | B3 | 1.7 | 68

biological target: T1, cyno IL-6; assay: cell-based or functional assay; remark: another data set of the same source

Row | Binder | cyno IL-6 TF1 proliferation assay (IC50, pM) [pM]
32 | B1 | 54
33 | B2 | 209
34 | B3 | 61

biological target: T3, human TNF-α; assay: cell-based or functional assay; remark: another data set of the same source

Row | Binder | Ratio IC50 reference anti-TNF-α mAb/Nb [ratio] | hTNF-α Nfkb assay (IC50, pM) [pM]
35 | B1 | 0.62 | 206
36 | B2 | 0.83 | 69
37 | B3 | 0.91 | 141

biological target: T4, cyno TNF-α; assay: cell-based or functional assay; remark: another data set of the same source

Row | Binder | cyno TNF-α NFkb assay (IC50, pM) [pM]
38 | B1 | 360
39 | B2 | 139
40 | B3 | 329

Source: patent publication US20240301049A1 (Ablynx, published 2024)
